{"source": "paper PMC10372912", "about": "“Evidence for direct interaction between the oncogenic proteins E6 and E7 of high-risk human papillomavirus (HPV)” (The Journal of Biological Chemistry, 2023)", "key": {"[1]": {"molecular_target": "fl-16E7CR1/2 (aa 1–44) (human papillomavirus type 16) (UniProt P03129)", "test": "fluorescence polarisation; direct: 1.5-fold dilution series of MBP-E6 (or MBP) against fixed fl-E7 (350 nM HPV16, 200 nM HPV31) or 350 nM fl-16E7CR1/2; 20 mM Hepes pH 7.5, 200 mM NaCl, 1 mM TCEP, 0.005% Tween-20; one-site-specific binding fit"}, "[2]": {"molecular_target": "fl-16E7 (human papillomavirus type 16) (UniProt P03129)", "test": "fluorescence polarisation; direct: 1.5-fold dilution series of MBP-E6 (or MBP) against fixed fl-E7 (350 nM HPV16, 200 nM HPV31) or 350 nM fl-16E7CR1/2; 20 mM Hepes pH 7.5, 200 mM NaCl, 1 mM TCEP, 0.005% Tween-20; one-site-specific binding fit"}, "[3]": {"molecular_target": "fl-16E7 (human papillomavirus type 16) (UniProt P03129)", "test": "AUC; sedimentation velocity, 40,000 rpm, 20 °C, 20 mM Hepes pH 7.5, 200 mM NaCl, 1 mM TCEP; fl-16E7 followed at 495 nm; 1:1 molar mixture and titration of MBP-16E6_4C4S-LxxLL (0-150 μM) against 100 μM fl-16E7"}, "[4]": {"molecular_target": "fl-16E7 (human papillomavirus type 16) (UniProt P03129)", "test": "AUC; sedimentation equilibrium, 12,000 or 18,000 rpm, 20 °C, 20 mM Hepes pH 7.5, 200 mM NaCl, 1 mM TCEP; 100 μM MBP-16E6_4C4S-LxxLL, 100 μM fl-16E7, 100 μM complex (1:1 molar mixture)"}, "[5]": {"molecular_target": "fl-31E7 (human papillomavirus type 31) (UniProt P17387)", "test": "fluorescence polarisation; direct: 1.5-fold dilution series of MBP-E6 (or MBP) against fixed fl-E7 (350 nM HPV16, 200 nM HPV31) or 350 nM fl-16E7CR1/2; 20 mM Hepes pH 7.5, 200 mM NaCl, 1 mM TCEP, 0.005% Tween-20; one-site-specific binding fit"}, "[6]": {"molecular_target": "MBP-16E6_4C4S (human papillomavirus type 16)", "test": "fluorescence polarisation; competition: nonlabeled 16E7CR1/2 against the fl-16E7/MBP-16E6_4C4S complex (Fig. S5)"}, "[7]": {"molecular_target": "MBP-16E6_4C4S (human papillomavirus type 16)", "test": "fluorescence polarisation; competition: nonlabeled 16E7CR1/2 (aa 1-44) against the complex of 200 μM MBP-16E6_4C4S and 350 nM fl-16E7CR1/2 (60% saturation)"}, "[8]": {"molecular_target": "MBP-16E6_4C4S (human papillomavirus type 16)", "test": "fluorescence polarisation; competition: unlabeled GGG-E7 dimer (two-fold dilutions, from 200 μM HPV16, from 150 μM HPV31) against the preformed complex of fl-E7 with 50 μM MBP-16E6_4C4S or 70 μM MBP-31E6_2C2S-LxxLL (60-80% saturation); FP assay buffer; one-site-specific binding fit"}, "EYFP-16E7": {"molecular_target": "T1, EYFP-16E7 (human papillomavirus type 16, UniProt P03129 1-98)", "T1 construct": "Cloned in pEYFP-C1; SG linker between EYFP and E7; also called EYFP-E7 (HPV16); HPV 16E7; source: C33A, transfected, in cells; not shown: EYFP, N-terminal, kept", "T1 sequence (looked up)": "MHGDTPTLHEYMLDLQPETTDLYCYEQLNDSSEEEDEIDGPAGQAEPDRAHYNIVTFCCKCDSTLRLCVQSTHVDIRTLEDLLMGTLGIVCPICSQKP", "test": "FRET or BRET; flow cytometry-based FRET (FACS-FRET) in C33A cells coexpressing mTagBFP2-E6 and EYFP-E7 of the same HPV type; at least 10% FRET and at least 500 FRET-positive cells count as an interaction; three biological replicates", "conditions": "partners not purified"}, "EYFP-31E7": {"molecular_target": "T2, EYFP-31E7 (human papillomavirus type 31, UniProt P17387 1-98)", "T2 construct": "Cloned in pEYFP-C1; SG linker between EYFP and E7; also called EYFP-E7 (HPV31); HPV 31E7; source: C33A, transfected, in cells; not shown: EYFP, N-terminal, kept", "T2 sequence": "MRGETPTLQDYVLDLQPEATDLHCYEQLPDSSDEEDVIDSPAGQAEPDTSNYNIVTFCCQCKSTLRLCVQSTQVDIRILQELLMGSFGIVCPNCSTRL", "test": "FRET or BRET; flow cytometry-based FRET (FACS-FRET) in C33A cells coexpressing mTagBFP2-E6 and EYFP-E7 of the same HPV type; at least 10% FRET and at least 500 FRET-positive cells count as an interaction; three biological replicates", "conditions": "partners not purified"}, "[9]": {"molecular_target": "MBP-31E6_2C2S-LxxLL (human papillomavirus type 31 | not stated) (UniProt P17386)", "test": "fluorescence polarisation; competition: unlabeled GGG-E7 dimer (two-fold dilutions, from 200 μM HPV16, from 150 μM HPV31) against the preformed complex of fl-E7 with 50 μM MBP-16E6_4C4S or 70 μM MBP-31E6_2C2S-LxxLL (60-80% saturation); FP assay buffer; one-site-specific binding fit"}, "EYFP-38E7": {"molecular_target": "T3, EYFP-38E7 (human papillomavirus type 38, UniProt Q80908 1-100)", "T3 construct": "Cloned in pEYFP-C1; SG linker between EYFP and E7; also called EYFP-E7 (HPV38); HPV 38E7; source: C33A, transfected, in cells; not shown: EYFP, N-terminal, kept", "T3 sequence": "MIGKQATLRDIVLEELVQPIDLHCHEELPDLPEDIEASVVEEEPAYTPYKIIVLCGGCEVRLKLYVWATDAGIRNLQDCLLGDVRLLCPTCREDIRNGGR", "test": "FRET or BRET; flow cytometry-based FRET (FACS-FRET) in C33A cells coexpressing mTagBFP2-E6 and EYFP-E7 of the same HPV type; at least 10% FRET and at least 500 FRET-positive cells count as an interaction; three biological replicates", "conditions": "partners not purified"}}, "data": [{"molecule": "MBP-16E6_4C4S (natural protein)", "values": [{"measurement": "Kd", "setting": "[1]", "value": 101, "unit": "µM"}, {"measurement": "Kd", "setting": "[2]", "value": 3, "unit": "µM"}]}, {"molecule": "MBP-16E6_4C4S-LxxLL", "values": [{"measurement": "Kd", "setting": "[2]", "value": 46.4, "unit": "µM"}, {"measurement": "percent of fl-16E7 in complex", "setting": "[3]", "value": 89, "unit": "%"}, {"measurement": "stoichiometry N (E6 per E7 (2:2 complex))", "setting": "[4]", "value": 1}]}, {"molecule": "MBP-31E6_2C2S-LxxLL (from UniProt P17386 1-149)", "values": [{"measurement": "Kd", "setting": "[5]", "value": 59.4, "unit": "µM"}]}, {"molecule": "fl-16E7 (from UniProt P03129 1-98) (natural protein)", "values": [{"measurement": "stoichiometry N", "setting": "[4]", "value": 2}]}, {"molecule": "nonlabeled 16E7CR1/2 (aa 1–44) (from UniProt P03129 1-44) (peptide)", "values": [{"measurement": "Kd", "setting": "[6]", "value": 288, "unit": "µM"}, {"measurement": "Kd", "setting": "[7]", "value": 128, "unit": "µM"}]}, {"molecule": "unlabeled GGG-16E7 dimer (from UniProt P03129 1-98) (natural protein)", "values": [{"measurement": "Kd", "setting": "[8]", "value": 61.9, "unit": "µM"}]}, {"molecule": "mTagBFP2-16E6 (natural protein, human papillomavirus type 16, UniProt P03126 1-158, looked up, Cloned in pmTagBFP-C1; SG linker between the fluorescent protein and the viral protein; also called mTagBFP2-E6 (HPV16); HPV 16E6; source: C33A, transfected, in cells; not shown: mTagBFP2, N-terminal, kept) MHQKRTAMFQDPQERPRKLPQLCTELQTTIHDIILECVYCKQQLLRREVYDFAFRDLCIVYRDGNPYAVCDKCLKFYSKISEYRHYCYSLYGTTLEQQYNKPLCDLLIRCINCQKPLCPEEKQRHLDKKQRFHNIRGRWTGRCMSCCRSSRTRRETQL", "values": [{"measurement": "percent FRET", "setting": "EYFP-16E7", "value": 13, "unit": "%"}]}, {"molecule": "mTagBFP2-31E6 (natural protein, Cloned in pmTagBFP-C1; SG linker between the fluorescent protein and the viral protein; also called mTagBFP2-E6 (HPV31); HPV 31E6; source: C33A, transfected, in cells; not shown: mTagBFP2, N-terminal, kept) MFKNPAERPRKLHELSSALEIPYDELRLNCVYCKGQLTETEVLDFAFTDLTIVYRDDTPHGVCTKCLRFYSKVSEFRWYRYSVYGTTLEKLTNKGICDLLIRCITCQRPLCPEEKQRHLDKKKRFHNIGGRWTGRCIACWRRPRTETQV", "values": [{"measurement": "percent FRET", "setting": "EYFP-31E7", "value": 16.3, "unit": "%"}]}, {"molecule": "unlabeled GGG-31E7 dimer (natural protein) GGGMRGETPTLQDYVLDLQPEATDLHCYEQLPDSSDEEDVIDSPAGQAEPDTSNYNIVTFCCQCKSTLRLCVQSTQVDIRILQELLMGSFGIVCPNCSTRL", "values": [{"measurement": "Kd", "setting": "[9]", "value": 54.2, "unit": "µM"}]}, {"molecule": "mTagBFP2-38E6 (natural protein, Cloned in pmTagBFP-C1; SG linker between the fluorescent protein and the viral protein; also called mTagBFP2-E6 (HPV38); HPV 38E6; source: C33A, transfected, in cells; not shown: mTagBFP2, N-terminal, kept) MELPKPQTVQQLSDKLTVPVEDLLLPCRFCNSFLTYIELREFDYKNLQLIWTQEDFVFACCSSCAYASAQYECQQFYELTVFGREIEQVEQQTIGLIVIRCQYCLKCLDLIEKLDICCSHQAFHKVRGNWKGRCRHCKAIE", "values": [{"measurement": "percent FRET", "setting": "EYFP-38E7", "value": 17.9, "unit": "%"}]}]}
